Series [1] has as its system Clc1cc2c(NC3CCCC3)nnc(-c3ccncc3)c2cc1Cl. The conditions noted are these: Homo sapiens; time 2.0 hrs.
Series [2] has the same test system. Conditions: Homo sapiens; time 2.0 hrs. This is another data set of the same source.

Histone-lysine N-methyltransferase KMT5B (Homo sapiens), Q4FZB7, sequence (Q4FZB7 whole entry): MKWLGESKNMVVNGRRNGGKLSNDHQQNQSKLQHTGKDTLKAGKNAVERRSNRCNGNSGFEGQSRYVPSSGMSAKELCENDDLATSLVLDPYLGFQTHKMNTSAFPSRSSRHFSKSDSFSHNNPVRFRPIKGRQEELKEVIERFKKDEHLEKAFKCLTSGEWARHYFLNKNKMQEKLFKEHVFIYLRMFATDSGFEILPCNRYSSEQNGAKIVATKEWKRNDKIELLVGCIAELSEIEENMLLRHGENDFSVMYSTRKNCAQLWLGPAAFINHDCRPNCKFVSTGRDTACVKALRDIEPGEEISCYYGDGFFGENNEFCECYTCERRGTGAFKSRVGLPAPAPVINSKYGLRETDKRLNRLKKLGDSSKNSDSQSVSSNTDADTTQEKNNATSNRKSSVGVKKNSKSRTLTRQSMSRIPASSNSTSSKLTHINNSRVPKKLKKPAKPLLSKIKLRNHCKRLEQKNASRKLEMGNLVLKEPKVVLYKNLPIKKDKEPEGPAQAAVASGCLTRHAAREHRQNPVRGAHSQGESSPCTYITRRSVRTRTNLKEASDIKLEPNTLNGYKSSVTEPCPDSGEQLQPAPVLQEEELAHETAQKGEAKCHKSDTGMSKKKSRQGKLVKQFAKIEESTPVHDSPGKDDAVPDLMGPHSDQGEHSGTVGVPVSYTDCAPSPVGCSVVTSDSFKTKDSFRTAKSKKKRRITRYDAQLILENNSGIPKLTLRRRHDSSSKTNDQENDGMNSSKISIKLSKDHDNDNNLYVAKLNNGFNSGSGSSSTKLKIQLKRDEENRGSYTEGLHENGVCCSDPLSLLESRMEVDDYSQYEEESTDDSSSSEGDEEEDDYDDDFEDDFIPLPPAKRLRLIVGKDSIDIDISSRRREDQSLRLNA

As a reminder, the Km is the concentration of substrate that gives half-maximal velocity. For the substance “Histone-lysine N-methyltransferase KMT5B (Homo sapiens), Q4FZB7”, the Km in series [1] was determined as 0.0748 µM; in series [2] it was 0.0278 µM.

The values are drawn from ChEMBL document CHEMBL5649167, “The SUV4-20 inhibitor A-196 verifies a role for epigenetics in genomic integrity” (Nat Chem Biol, 2017).
